According to publication PMC11787620 (iScience, 2025):

Target: the molecule itself
Assay: SEC

| Protein | stoichiometry N |
| --- | --- |
| LexAPa^CTD G91D (LexAPa C-terminal domain, Gly81 to Arg204, with the inactivating G91D mutation on the cleavage site) (domain or fragment, Pseudomonas aeruginosa (ATCC 27853), UniProt P37452 81-204, looked up) GLPVIGRVAADAPILAEQNIEESCRINPAFFNPRADYLLRVRGMSMKDIGILDGDLLAVHVTREARNGQVVVARIGEEVTVKRFKREGSKVWLLAENPEFAPIEVDLKEQELIIEGLSVGVIRR | 2 |
| LexAPaS125A (full-length P. aeruginosa LexA carrying the S125A mutation in the catalytic dyad) (natural protein, Pseudomonas aeruginosa (ATCC 27853), UniProt P37452 1-204, looked up) MQKLTPRQAEILSFIKRCLEDHGFPPTRAEIAQELGFKSPNAAEEHLKALARKGAIEMTPGASRGIRIPGFEPHAANDDEGLPVIGRVAAGAPILAEQNIEESCRINPAFFNPRADYLLRVRGMAMKDIGILDGDLLAVHVTREARNGQVVVARIGEEVTVKRFKREGSKVWLLAENPEFAPIEVDLKEQELIIEGLSVGVIRR | 2 |
